The nature of test [1]: DIO rat 14-day mini-pump study of leptin and amylin: food intake, body weight, body composition (Example 1). Type of test: in vivo. The note with it: DIO rats, 14 days s.c. osmotic mini-pump, leptin 500 μg/kg/day, amylin 100 μg/kg/day. From the text:
Diet-induced obesity (DIO) in the in the Sprague-Dawley rat is a valuable model for the study of obesity and regulation of energy homeostasis. These rats were developed from a line of (Crl:CD®(SD)BR) rats that are prone to become obese on a diet relatively high in fat and energy. See, for example, Levin (1994) Am. J. Physiol. 267:R527-R535, Levin et al. (1997) Am. J. Physiol. 273:R725-R730. DIO male rats were obtained from Charles River Laboratories, Inc. (Wilmington, Mass.). The rats were housed individually in shoebox cages at 22° C. in a 12/12-hour light dark cycle. Rats were maintained ad-libitum on a moderately high fat diet (32% kcal from fat; Research Diets D1226B) for 6-7 weeks prior to drug treatment. At the end of the fattening period (prior to drug administration), the animals typically achieve a mean body weight of about 500 g.
The DIO animals were divided into four treatment groups. Each group was implanted with subcutaneous osmotic mini-pumps (DURECT Corp., Cupertino, Calif.) designed to deliver vehicle, leptin (500 μg/kg/day), amylin (100 μg/kg/day) or leptin (500 μg/kg/day)+amylin (100 μg/kg/day) for a 14 day period. […] Food intake and body weight were recorded daily. Body composition was measured prior to and after drug treatment using NMR (Echo Medical Systems, Houston, Tex.). […]

Test [2] can be described thus: In-bred DIO (Levin) rats, amylin and leptin, body weight and NMR body composition (Example 2). The note with it: two weeks, leptin 500 μg/kg/day, amylin 100 μg/kg/day, FIG. 6A. Type of test: in vivo, rat. Here is the method:
They were housed individually in shoebox cages at 22 C in a 12/12-hour light dark cycle.
Body composition was measured prior to and after drug treatment using NMR (Echo Medical Systems, Houston, Tex.). For body composition measurements, rats were briefly placed (˜1 min) in a well-ventilated plexiglass tube that was then inserted into a specialized rodent NMR machine. Rats were scanned prior to pump implantation and on the final day of the experiment. This enabled the calculation of changes in actual grams of fat and dry lean tissue (e.g., grams of body fat after treatment−grams of body fat at baseline=change in grams of body fat) and changes in % body composition for fat and dry lean tissue (e.g., % body fat after treatment−% body fat at baseline=change in % body fat).

Test [3] can be described thus: Pair-feeding experiment in DIO rats, amylin+leptin (Example 2). The note with it: two weeks, leptin 500 μg/kg/day with intake restricted to amount consumed by amylin-treated group, FIG. 7. The format is in vivo, rat. The protocol:
Amylin is known to have an anorectic effect on a recipient. In order to examine the effect of amylin+leptin in the context of an anorectic effect of amylin, a pair-feeding experiment was performed. DIO rats and drug treatment groups were established as described above. DIO rats in the vehicle, amylin, and amylin+leptin treatment groups had ad libitum access to food, while intake in the pair-fed leptin treatment was restricted to the amount consumed by the amylin-treated group. Body weight was recorded daily for the two weeks of treatment. […] The combination of amylin+leptin results in a decrease of about 12% in body weight relative to vehicle control.

Test [4] in a line: Leptin effect on body weight in normal HSD versus DIO prone rats (Example 3). The format is in vivo, rat. The note with it: FIG. 9. The protocol: Normal, lean HSD rats were divided into two treatment groups. Each group was implanted with subcutaneous osmotic mini-pumps (DURECT Corp., Cupertino, Calif.) designed to deliver either vehicle or leptin (500 μg/kg/day) for a 14 day period and body weight was recorded weekly. […] The DIO prone animals described herein appear resistant to the weight reducing effect of leptin.

Test [5] can be described thus: 24-week randomized, double-blind, active-drug-controlled study of pramlintide and metreleptin in overweight and obese subjects (Example 8). The format is in vivo, human. Here is the method: To evaluate inter alia the safety, tolerability and effect of the combination of an amylin agonist (pramlintide) and a leptin (metreleptin) on changes in body weight, a 24-week, randomized, double-blind, active-drug-controlled, multicenter study was conducted under USFDA approved protocols. Secondary objectives of the study were the determination of the pharmacokinetics of pramlintide and leptin, waist circumference, rate of change in body weight, and patient reported outcomes including for example without limitation perception of well-being related to weight change and mood. The study enrolled overweight and obese subjects with defined BMI ([…]), with enrollment statistics as provided in Table 2. […] Subjects treated with pramlintide/metreleptin lost an average of 25 pounds from the start of the 24-week study compared with an average of 17 pounds for subjects treated with pramlintide alone.
In an initial lead-in phase, all subjects received dietary instructions and treatment with pramlintide at 180 mcg BID for two weeks, followed by pramlintide at 360 mcg BID for two weeks. Subjects who completed the 4-week lead-in period and who lost 2-8 percent body weight during this period were eligible to continue the study. The term “enrolled” (Table 2) refers to subjects (N=177) receiving at least one dose of pramlintide during the lead-in period. The term “non-randomized” refers to subjects not continuing in the study past the lead-in period. The term “evaluable” refers to subjects who completed Visit 9 (Week 16) study procedures and adequately complied with the study protocol.
After the 4-week lead-in period, for the remaining 20 weeks of the study the subjects were randomized in a 2:2:1 ratio to one of three groups with BID treatment of 1) pramlintide 360 mcg/metreleptin 5 mg (“Leptin+Pramlintide”); 2) pramlintide 360 mcg/placebo (“Pramlintide”); or 3) metreleptin 5 mg/placebo (“Leptin”).

Where [6] appears, read: 4-week pramlintide lead-in, arm of later randomization.

B1: murine leptin (protein, UniProt P41160 22-167, looked up)
Leptin: VPIQKVQDDTKTLIKTIVTRINDISHTQSVSAKQRVTGLDFIPGLHPILSLSKMDQTLAVYQQVLTSLPSQNVLQIANDLENLRDLLHLLAFSKSCSLPQTSGLQKPESLDGVLEASLYSTEVVALSRLQGSLQDILQQLDVSPEC
Consider B1, for which the cumulative food intake result in test [1] (FIG. 1) is given as “no effect”. In addition, the “total changes in body weight” value in test [1] (FIG. 2) was “no effect”. Also, in test [2], the “vehicle-corrected decrease in percent body weight” value is 2%. The “decrease in body weight relative to vehicle control, pair-fed” value in test [3] is listed as approximately 6%. For the same molecule, the body weight result in test [4] (DIO prone rats, same leptin dose) was “ineffective”; in test [4] (normal, lean HSD rats, leptin 500 μg/kg/day s.c. mini-pump, 14 days), “significant and sustained reduction in body weight”. Further, the “rate of change in body weight, early rate” value in test [5] (0-12 weeks, evaluable population, FIG. 24) is listed as −0.19±0.05 kg/week. In addition, the “Mean Change in Body Weight” value in test [5] (4-week lead-in period in which all subjects received pramlintide (180 then 360 mcg BID), arm of later randomization) was -3.97 kg. For the same molecule, the “% Weight Loss During Lead-in <5% (share of subjects)” value in test [5] (setting [6]) was determined as 78%. For the same molecule, in test [5] (setting [6]), the “% Weight Loss During Lead-in ≧5% (share of subjects)” value is reported as 22%. The “rate of change in body weight, late rate” value in test [5] (12-20 weeks, evaluable population, FIG. 24) is recorded as −0.01±0.08 kg/week.

For the origin of these results see patent publication US8394765B2, “Methods of treating obesity with two different anti-obesity agents” (Amylin Pharmaceuticals LLC, priority 2004, dated 2013).
